Measured values as given in publication PMC11258689, “A Snake Venom Peptide and Its Derivatives Prevent Aβ42 Aggregation and Eliminate Toxic Aβ42 Aggregates In Vitro” (ACS Chemical Neuroscience, 2024).
Non-standard residues stand in square brackets, D forms with d. No end group written: not given here.

Biological target: amyloid-β (1–42) (UniProt P05067)

B1: CDP-1D, D-enantiomeric form of CDP-1 (peptide)
peptide: Ac-[dK][dK][dC][dC][dK][dW][dR][dW][dR][dC][dD][dM][dK]
modifications: not fully specified (C-terminus); cysteine pairing not given here; also: methylated at the C-terminus
For B1, which ThT fluorescence of Aβ42 aggregation (10 μM Aβ42, 28 μM peptide, 24 h); inhibition of the self-aggregation of Aβ42 is on record?
Its ThT fluorescence of Aβ42 aggregation (10 μM Aβ42, 28 μM peptide, 24 h); inhibition of the self-aggregation of Aβ42 is 100%.
